In patent US20190183976A1 (GPCR THERAPEUTICS, published 2019):
Where two headings read alike, the source gives them in different places.

Experiments:
CXCR4-VN [1] = biological target: T1, CXCR4-VN (human, UniProt P61073 1-352); assay: BiFC, U-2 OS cells, CXCR4-VN & GPCRx-VC; score=(positive cells/total cells)x100
T1 construct: whole, on cells; Adenovirus-expressed in U-2 OS cells; also called CXCR4 fused with N-terminal fragment of Venus; not shown: VNm10, N-terminal fragment of Venus (VN154 variant with L46F and L64F)
Experimental: (§1) Images of about 200 cells from each well were analyzed with Multi-target analysis software in IN Cell Developer ToolBox (GE Healthcare, Waukesha, Wis.). Cell boundary was marked based on Hoechst signal, and fluorescence intensity per cell was measured. Cells with fluorescence intensities higher than background level were considered as BiFC positive cells. […] Positive cells were determined, and positive cell count ratio (“BiFC score”) was calculated as (positive cells/total cells)×100 (see Table 4 below).

CXCR4-VN [2] = biological target: T1, CXCR4-VN; assay: as above; remark: listed apart in the source
Experimental: as §1

ADRB2 = biological target: T2, ADRB2 (human, UniProt P07550 1-413); assay: proximity ligation assay, GBM patient derived cells (endogenous receptors)
T2 construct: whole, on cells; Untagged: adenovirus-expressed in U-2 OS or MDA-MB-231 cells, or endogenous in patient derived cells and PDX tissue; also called Adrenoceptor Beta 2; Ad-ADRB2
Experimental: (§2) To perform PLA with PDC samples, the patient derived cells were plated and fixed with 4% PFA on sixteen-well tissue culture slides. […] Slides were then washed and incubated (1 h at 37° C.) with secondary anti-rabbit and anti-mouse antibodies conjugated with plus and minus Duolink II PLA probes. Slides were washed again and then incubated with ligation-ligase solution (30 min at 37° C.) followed by incubation with amplification-polymerase solution (2 h at 37° C.).
as §2, with “PDCs” for “To perform PLA with PDC samples, the patient derived cells”, “seeded in 96-chamber slide at 100000 ea /well in 100 ul” for “plated and fixed with 4% PFA on sixteen-well tissue”, “media.” for “slides.”

CHRM1 = biological target: T3, CHRM1 (human, UniProt P11229 1-460); assay: as above
T3 construct: whole, on cells; Untagged: adenovirus-expressed in U-2 OS or MDA-MB-231 cells, or endogenous in patient derived cells; also called Cholinergic Receptor Muscarinic 1
T3 sequence (looked up): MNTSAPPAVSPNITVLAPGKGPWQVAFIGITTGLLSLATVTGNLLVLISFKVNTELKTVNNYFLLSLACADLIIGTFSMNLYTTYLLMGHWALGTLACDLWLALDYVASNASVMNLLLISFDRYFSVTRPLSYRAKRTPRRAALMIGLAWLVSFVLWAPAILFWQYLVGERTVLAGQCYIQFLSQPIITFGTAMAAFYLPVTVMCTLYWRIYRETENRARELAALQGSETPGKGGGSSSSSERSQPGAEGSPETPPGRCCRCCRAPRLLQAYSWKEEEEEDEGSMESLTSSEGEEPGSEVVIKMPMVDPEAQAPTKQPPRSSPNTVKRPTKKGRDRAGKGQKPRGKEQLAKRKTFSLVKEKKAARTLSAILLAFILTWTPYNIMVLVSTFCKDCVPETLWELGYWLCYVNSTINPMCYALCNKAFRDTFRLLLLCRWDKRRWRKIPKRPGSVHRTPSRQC
Experimental: as §2
as §2, with “PDCs” for “To perform PLA with PDC samples, the patient derived cells”, “seeded in 96-chamber slide at 100000 ea /well in 100 ul” for “plated and fixed with 4% PFA on sixteen-well tissue”, “media.” for “slides.”

Binder	BiFC score (CXCR4-VN [1])	further results
CALCR-VC (receptor, human, UniProt P30988 25-474, looked up, whole, on cells; Adenovirus-expressed in U-2 OS cells; not shown: VC155, C-terminal fragment of Venus) AFSNQTYPTIEPKPFLYVVGRKKMMDAQYKCYDRMQQLPAYQGEGPYCNRTWDGWLCWDDTPAGVLSYQFCPDYFPDFDPSEKVTKYCDEKGVWFKHPENNRTWSNYTMCNAFTPEKLKNAYVLYYLAIVGHSLSIFTLVISLGIFVFFRSLGCQRVTLHKNMFLTYILNSMIIIIHLVEVVPNGELVRRDPVSCKILHFFHQYMMACNYFWMLCEGIYLHTLIVVAVFTEKQRLRWYYLLGWGFPLVPTTIHAITRAVYFNDNCWLSVETHLLYIIHGPVMAALVVNFFFLLNIVRVLVTKMRETHEAESHMYLKAVKATMILVPLLGIQFVVFPWRPSNKMLGKIYDYVMHSLIHFQGFFVATIYCFCNNEVQTTVKRQWAQFKIQWNQRWGRRPSNRSARAAAAAAEAGDIPIYICHQELRNEPANNQGEESAEIIPLNIIEQESSA	53	–
ADCYAP1R1-VC (receptor, human, UniProt P41586 21-468, looked up, whole, on cells; Adenovirus-expressed in U-2 OS cells; not shown: VC155, C-terminal fragment of Venus) MHSDCIFKKEQAMCLEKIQRANELMGFNDSSPGCPGMWDNITCWKPAHVGEMVLVSCPELFRIFNPDQVWETETIGESDFGDSNSLDLSDMGVVSRNCTEDGWSEPFPHYFDACGFDEYESETGDQDYYYLSVKALYTVGYSTSLVTLTTAMVILCRFRKLHCTRNFIHMNLFVSFMLRAISVFIKDWILYAEQDSNHCFISTVECKAVMVFFHYCVVSNYFWLFIEGLYLFTLLVETFFPERRYFYWYTIIGWGTPTVCVTVWATLRLYFDDTGCWDMNDSTALWWVIKGPVVGSIMVNFVLFIGIIVILVQKLQSPDMGGNESSIYLRLARSTLLLIPLFGIHYTVFAFSPENVSKRERLVFELGLGSFQGFVVAVLYCFLNGEVQAEIKRKWRSWKVNRYFAVDFKHRHPSLASSGVNGGTQLSILSKSSSQIRMSGLPADNLAT	23	–
EDNRB-VC (receptor, human, UniProt P24530 27-442, looked up, whole, on cells; Adenovirus-expressed in U-2 OS cells; not shown: VC155, C-terminal fragment of Venus) EERGFPPDRATPLLQTAEIMTPPTKTLWPKGSNASLARSLAPAEVPKGDRTAGSPPRTISPPPCQGPIEIKETFKYINTVVSCLVFVLGIIGNSTLLRIIYKNKCMRNGPNILIASLALGDLLHIVIDIPINVYKLLAEDWPFGAEMCKLVPFIQKASVGITVLSLCALSIDRYRAVASWSRIKGIGVPKWTAVEIVLIWVVSVVLAVPEAIGFDIITMDYKGSYLRICLLHPVQKTAFMQFYKTAKDWWLFSFYFCLPLAITAFFYTLMTCEMLRKKSGMQIALNDHLKQRREVAKTVFCLVLVFALCWLPLHLSRILKLTLYNQNDPNRCELLSFLLVLDYIGINMASLNSCINPIALYLVSKRFKNCFKSCLCCWCQSFEEKQSLEEKQSCLKFKANDHGYDNFRSSNKYSSS	41	–
ADORA3-VC (receptor, human, UniProt P0DMS8 1-318, looked up, whole, on cells; Adenovirus-expressed in U-2 OS cells; not shown: VC155, C-terminal fragment of Venus) MPNNSTALSLANVTYITMEIFIGLCAIVGNVLVICVVKLNPSLQTTTFYFIVSLALADIAVGVLVMPLAIVVSLGITIHFYSCLFMTCLLLIFTHASIMSLLAIAVDRYLRVKLTVRYKRVTTHRRIWLALGLCWLVSFLVGLTPMFGWNMKLTSEYHRNVTFLSCQFVSVMRMDYMVYFSFLTWIFIPLVVMCAIYLDIFYIIRNKLSLNLSNSKETGAFYGREFKTAKSLFLVLFLFALSWLPLSIINCIIYFNGEVPQLVLYMGILLSHANSMMNPIVYAYKIKKFKETYLLILKACVVCHPSDSLDTSIEKNSE	43	–
GALR1-VC (receptor, human, UniProt P47211 1-349, looked up, whole, on cells; Adenovirus-expressed in U-2 OS cells; not shown: VC155, C-terminal fragment of Venus) MELAVGNLSEGNASWPEPPAPEPGPLFGIGVENFVTLVVFGLIFALGVLGNSLVITVLARSKPGKPRSTTNLFILNLSIADLAYLLFCIPFQATVYALPTWVLGAFICKFIHYFFTVSMLVSIFTLAAMSVDRYVAIVHSRRSSSLRVSRNALLGVGCIWALSIAMASPVAYHQGLFHPRASNQTFCWEQWPDPRHKKAYVVCTFVFGYLLPLLLICFCYAKVLNHLHKKLKNMSKKSEASKKKTAQTVLVVVVVFGISWLPHHIIHLWAEFGVFPLTPASFLFRITAHCLAYSNSSVNPIIYAFLSENFRKAYKQVFKCHIRKDSHLSDTKESKSRIDTPPSTNCTHV	60	BiFC score (CXCR4-VN [2]): 60
CXCR4 (receptor, human, UniProt P61073 1-352, looked up, whole, on cells; also called C-X-C Motif Chemokine Receptor 4; CXC receptor 4) MEGISIYTSDNYTEEMGSGDYDSMKEPCFREENANFNKIFLPTIYSIIFLTGIVGNGLVILVMGYQKKLRSMTDKYRLHLSVADLLFVITLPFWAVDAVANWYFGNFLCKAVHVIYTVNLYSSVLILAFISLDRYLAIVHATNSQRPRKLLAEKVVYVGVWIPALLLTIPDFIFANVSEADDRYICDRFYPNDLWVVVFQFQHIMVGLILPGIVILSCYCIIISKLSHSKGHQKRKALKTTVILILAFFACWLPYYIGISIDSFILLEIIKQGCEFENTVHKWISITEALAFFHCCLNPILYAFLGAKFKTSAQHALTSVSRGSSLKILSKGKRGGHSSVSTESESSSFHSS	–	binding result (ADRB2): binds; binding result (CHRM1): binds
TACR3-VC (receptor, human, UniProt P29371 1-465, looked up, whole, on cells; Adenovirus-expressed in U-2 OS cells; not shown: VC155, C-terminal fragment of Venus) MATLPAAETWIDGGGGVGADAVNLTASLAAGAATGAVETGWLQLLDQAGNLSSSPSALGLPVASPAPSQPWANLTNQFVQPSWRIALWSLAYGVVVAVAVLGNLIVIWIILAHKRMRTVTNYFLVNLAFSDASMAAFNTLVNFIYALHSEWYFGANYCRFQNFFPITAVFASIYSMTAIAVDRYMAIIDPLKPRLSATATKIVIGSIWILAFLLAFPQCLYSKTKVMPGRTLCFVQWPEGPKQHFTYHIIVIILVYCFPLLIMGITYTIVGITLWGGEIPGDTCDKYHEQLKAKRKVVKMMIIVVMTFAICWLPYHIYFILTAIYQQLNRWKYIQQVYLASFWLAMSSTMYNPIIYCCLNKRFRAGFKRAFRWCPFIKVSSYDELELKTTRFHPNRQSSMYTVTRMESMTVVFDPNDADTTRSSRKKRATPRDPSFNGCSRRNSKSASATSSFISSPYTSVDEYS	33	–
APLNR-VC (receptor, human, UniProt P35414 1-380, looked up, whole, on cells; Adenovirus-expressed in U-2 OS cells; not shown: VC155, C-terminal fragment of Venus) MEEGGDFDNYYGADNQSECEYTDWKSSGALIPAIYMLVFLLGTTGNGLVLWTVFRSSREKRRSADIFIASLAVADLTFVVTLPLWATYTYRDYDWPFGTFFCKLSSYLIFVNMYASVFCLTGLSFDRYLAIVRPVANARLRLRVSGAVATAVLWVLAALLAMPVMVLRTTGDLENTTKVQCYMDYSMVATVSSEWAWEVGLGVSSTTVGFVVPFTIMLTCYFFIAQTIAGHFRKERIEGLRKRRRLLSIIVVLVVTFALCWMPYHLVKTLYMLGSLLHWPCDFDLFLMNIFPYCTCISYVNSCLNPFLYAFFDPRFRQACTSMLCCGQSRCAGTSHSSSGEKSASYSSGHSQGPGPNMGKGGEQMHEKSIPYSQETLVVD	63	BiFC score (CXCR4-VN [2]): 63
C5AR1-VC (receptor, human, UniProt P21730 1-350, looked up, whole, on cells; Adenovirus-expressed in U-2 OS cells; not shown: VC155, C-terminal fragment of Venus) MDSFNYTTPDYGHYDDKDTLDLNTPVDKTSNTLRVPDILALVIFAVVFLVGVLGNALVVWVTAFEAKRTINAIWFLNLAVADFLSCLALPILFTSIVQHHHWPFGGAACSILPSLILLNMYASILLLATISADRFLLVFKPIWCQNFRGAGLAWIACAVAWGLALLLTIPSFLYRVVREEYFPPKVLCGVDYSHDKRRERAVAIVRLVLGFLWPLLTLTICYTFILLRTWSRRATRSTKTLKVVVAVVASFFIFWLPYQVTGIMMSFLEPSSPTFLLLKKLDSLCVSFAYINCCINPIIYVVAGQGFQGRLRKSLPSLLRNVLTEESVVRESKSFTRSTVDTMAQKTQAV	42	–
CHRM1-VC (receptor, human, UniProt P11229 1-460, looked up, whole, on cells; Adenovirus-expressed in U-2 OS cells; not shown: VC155, C-terminal fragment of Venus) MNTSAPPAVSPNITVLAPGKGPWQVAFIGITTGLLSLATVTGNLLVLISFKVNTELKTVNNYFLLSLACADLIIGTFSMNLYTTYLLMGHWALGTLACDLWLALDYVASNASVMNLLLISFDRYFSVTRPLSYRAKRTPRRAALMIGLAWLVSFVLWAPAILFWQYLVGERTVLAGQCYIQFLSQPIITFGTAMAAFYLPVTVMCTLYWRIYRETENRARELAALQGSETPGKGGGSSSSSERSQPGAEGSPETPPGRCCRCCRAPRLLQAYSWKEEEEEDEGSMESLTSSEGEEPGSEVVIKMPMVDPEAQAPTKQPPRSSPNTVKRPTKKGRDRAGKGQKPRGKEQLAKRKTFSLVKEKKAARTLSAILLAFILTWTPYNIMVLVSTFCKDCVPETLWELGYWLCYVNSTINPMCYALCNKAFRDTFRLLLLCRWDKRRWRKIPKRPGSVHRTPSRQC	24	–
